The target in assay [1] is H1N1 pseudotyped lentiviral particles (H1 and N1 from swine H1N1 A/California/04/09) (influenza A virus H1N1 A/California/04/09). The assay can be described thus: cell-based or functional assay.
Assay [2] concerns the target H3N2 pseudotyped lentiviral particles (H3 from A/Denmark/70/03, N2 from A/Texas/50/2012) (influenza A virus H3N2 A/Denmark/70/03; influenza A virus H3N2 A/Texas/50/2012). The assay can be described thus: cell-based or functional assay.

Chain of recombinant vaccinia virus complement control protein (VCP) (P68638 20-263): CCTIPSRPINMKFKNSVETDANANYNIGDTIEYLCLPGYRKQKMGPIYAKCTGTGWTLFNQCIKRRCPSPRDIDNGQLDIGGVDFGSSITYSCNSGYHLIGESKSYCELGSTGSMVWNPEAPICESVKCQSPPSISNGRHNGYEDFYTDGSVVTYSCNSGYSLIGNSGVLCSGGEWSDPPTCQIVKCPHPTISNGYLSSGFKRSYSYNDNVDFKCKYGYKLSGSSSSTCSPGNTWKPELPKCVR

As to “recombinant vaccinia virus complement control protein (VCP) (from UniProt P68638 20-263)”, the luciferase reporter activity of transduced MDCK cells, 40 µg/ml protein in assay [1] was 45 % reduction; in assay [2] it was 30 % increase.

The record behind these values is US20210145935A1.
